Experimental data as given in article PMC10195817, “Autophagy receptor NDP52 alters DNA conformation to modulate RNA polymerase II transcription” (Nature Communications, 2022).
Values joined by “and” are separate entries in the source; they are usually repeats but may differ in a detail not shown here. Identical values can stand only once. Blank lines part the entries; values can stand above or below the binder they belong to.

Tests used:
[1] = target: T1, NDP52-FL (Human, UniProt Q13137 1-446); assay: fluorescence titration; Fluorescence: 100 nM DNA, 50 mM Tris-HCl pH 7.5, 150 mM NaCl, 1 mM DTT; EMSA: 50 mM Tris-HCl pH 7.5, 50 mM NaCl, 3 mM MgCl2, 5 min; temperature not stated; conditions: protein: recombinant, tags: His-tag (pET151), chain copies: 2, blunt
T1 sequence: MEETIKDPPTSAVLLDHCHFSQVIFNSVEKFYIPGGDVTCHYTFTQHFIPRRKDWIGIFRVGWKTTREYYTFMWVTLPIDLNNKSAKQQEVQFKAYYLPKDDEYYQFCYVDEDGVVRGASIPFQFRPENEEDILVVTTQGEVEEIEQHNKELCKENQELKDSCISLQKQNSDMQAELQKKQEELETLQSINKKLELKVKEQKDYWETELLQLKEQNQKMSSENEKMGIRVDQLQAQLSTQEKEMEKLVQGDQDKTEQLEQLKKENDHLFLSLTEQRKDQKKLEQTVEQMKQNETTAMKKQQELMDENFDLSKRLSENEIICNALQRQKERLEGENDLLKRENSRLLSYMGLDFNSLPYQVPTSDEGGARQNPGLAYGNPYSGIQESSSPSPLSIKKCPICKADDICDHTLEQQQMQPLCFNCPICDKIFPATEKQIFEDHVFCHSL

[2] = target: T2, CoCoA (Human, UniProt Q9P1Z2 1-691); assay: fluorescence titration; high affinity; Fluorescence: 100 nM DNA, 50 mM Tris-HCl pH 7.5, 150 mM NaCl, 1 mM DTT; EMSA: 50 mM Tris-HCl pH 7.5, 50 mM NaCl, 3 mM MgCl2, 5 min; temperature not stated; conditions: protein: recombinant, tags: His-tag (pET151), chain copies: 2, blunt
T2 sequence: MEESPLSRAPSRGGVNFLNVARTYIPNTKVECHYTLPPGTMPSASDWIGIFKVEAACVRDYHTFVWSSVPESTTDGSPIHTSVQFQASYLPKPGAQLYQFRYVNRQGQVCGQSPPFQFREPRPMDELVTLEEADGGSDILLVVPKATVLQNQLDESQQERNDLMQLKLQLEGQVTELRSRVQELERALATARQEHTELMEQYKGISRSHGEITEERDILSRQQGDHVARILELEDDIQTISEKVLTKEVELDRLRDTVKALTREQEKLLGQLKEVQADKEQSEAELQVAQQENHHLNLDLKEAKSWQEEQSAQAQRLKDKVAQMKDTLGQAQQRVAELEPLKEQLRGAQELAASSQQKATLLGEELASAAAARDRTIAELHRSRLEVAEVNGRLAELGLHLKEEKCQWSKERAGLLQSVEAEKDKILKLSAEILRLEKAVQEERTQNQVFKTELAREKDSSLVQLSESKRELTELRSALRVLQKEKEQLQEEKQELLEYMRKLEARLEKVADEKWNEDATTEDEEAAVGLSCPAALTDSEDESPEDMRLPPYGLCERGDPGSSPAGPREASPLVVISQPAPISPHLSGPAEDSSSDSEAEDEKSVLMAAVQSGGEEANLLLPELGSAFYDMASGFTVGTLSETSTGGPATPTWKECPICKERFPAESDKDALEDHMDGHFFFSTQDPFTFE

[3] = target: T1, NDP52-FL; assay: fluorescence titration, competition; with and without ss40 competitor; Fluorescence: 100 nM DNA, 50 mM Tris-HCl pH 7.5, 150 mM NaCl, 1 mM DTT; EMSA: 50 mM Tris-HCl pH 7.5, 50 mM NaCl, 3 mM MgCl2, 5 min; temperature not stated; conditions: protein: recombinant; tags: His-tag (pET151); chain copies: 2; label: 3' FAM (called FITC in Methods) on strand 1 for fluorescence; blunt
[4] = target: T3, NNDP52 (N-terminal truncated region of NDP52, amino acid residues 1-190) (UniProt Q13137 1-190); assay: MST
T3 chain: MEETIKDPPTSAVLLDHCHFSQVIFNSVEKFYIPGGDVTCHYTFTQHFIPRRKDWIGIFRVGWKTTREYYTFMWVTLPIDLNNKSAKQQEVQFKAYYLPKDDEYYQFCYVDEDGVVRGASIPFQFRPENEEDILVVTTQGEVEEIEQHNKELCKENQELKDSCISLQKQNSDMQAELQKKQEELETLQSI

[5] = target: the molecule itself; assay: AFM imaging; purified protein adsorbed on mica (poly-L-lysine), imaged in liquid, PeakForce Tapping; monomers and oligomers counted by hand
[6] = target: the molecule itself; assay: SEC-MALS; 100 ul at 1 mg/ml (NDP52-FL, CoCoA) or 5 mg/ml (NNDP52, CNDP52, ZFs); Superdex 200 (30 x 1 cm); 50 mM Tris pH 7.5, 150 mM NaCl, 1 mM DTT; room temperature
[7] = target: the molecule itself; assay: MST; RED-tris-NTA labelled protein at 50 nM, unlabelled protein of the same construct titrated from 10 uM (16-step serial dilution), PBS, 15 min at room temperature; Monolith NT.115; oligomerisation, step of the constant not told
[8] = target: the molecule itself; assay: MST
[9] = target: T4, NDP52-FL (full-length NDP52/CALCOCO2), Q13137; assay: AFM imaging; purified protein adsorbed on mica (poly-L-lysine), imaged in liquid, PeakForce Tapping; monomers and oligomers counted by hand; conditions: remark: other sources report otherwise
T4 chain: T1 sequence

[10] = target: T4, NDP52-FL (full-length NDP52/CALCOCO2), …; assay: mass photometry; NDP52-FL alone, 50 mM Tris-HCl pH 7.5, 150 mM NaCl, OneMP mass photometer; results say 100 nM, methods say diluted to 10 nM; conditions: remark: other sources report otherwise
[11] = target: T4, NDP52-FL (full-length NDP52/CALCOCO2), …; assay: SEC-MALS; 100 ul at 1 mg/ml (NDP52-FL, CoCoA) or 5 mg/ml (NNDP52, CNDP52, ZFs); Superdex 200 (30 x 1 cm); 50 mM Tris pH 7.5, 150 mM NaCl, 1 mM DTT; room temperature; conditions: remark: other sources report otherwise
[12] = target: T4, NDP52-FL (full-length NDP52/CALCOCO2), …; assay: MST; RED-tris-NTA labelled protein at 50 nM, unlabelled protein of the same construct titrated from 10 uM (16-step serial dilution), PBS, 15 min at room temperature; Monolith NT.115; oligomerisation, step of the constant not told; conditions: remark: other sources report otherwise
[13] = label: 3' FAM (called FITC in Methods) on strand 1
[14] = label: 3' FAM (called FITC in Methods) on strand 1 for fluorescence

B1: ds15 (dsDNA)
DNA 1: TTAGTTGTTCTCTGG
DNA 2: CCAGAGAACAACTAA
Kd [1, 13]: < 100 nM | binding result [2, 13]: binds

B2: ds40 (dsDNA)
DNA 1: TTAGTTGTTCGTAGTGCTCGTCTGGCTCTGGATTACCCGC
DNA 2: GCGGGTAATCCAGAGCCAGACGAGCACTACGAACAACTAA
Kd [1, 14]: < 100 nM | binding result [2, 14]: binds | Kd [3]: < 100 nM

Kd [4]: 110 nM
B3: CNDP52 (C-terminal region of NDP52, amino acid residues 365-446) (domain or fragment, UniProt Q13137 365-446, looked up)
chain: EGGARQNPGLAYGNPYSGIQESSSPSPLSIKKCPICKADDICDHTLEQQQMQPLCFNCPICDKIFPATEKQIFEDHVFCHSL
notes: NDP52/CALCOCO2, a section of the coiled-coil and both zinc finger domains, amino acid residues 365-446; source: E. coli BL21 DE3, purified (HisTrap FF, Superdex 200 SEC)
stoichiometry N [5]: 2 | stoichiometry N [6]: 3 | Kd [7]: 50 ± 6 nM

B4: NNDP52 (N-terminal truncated region of NDP52, amino acid residues 1-190) (domain or fragment, UniProt Q13137 1-190, looked up)
chain: T3 chain
notes: NDP52/CALCOCO2, SKICH domain and part of the coiled-coil region, amino acid residues 1-190; also called N-terminal region of NDP52; source: E. coli BL21 DE3, purified (HisTrap FF, Superdex 200 SEC)
Kd [8]: 170 nM | stoichiometry N [6]: 2

B5: ZFs (the two zinc finger domains of NDP52, amino acid residues 380-446) (domain or fragment, UniProt Q13137 380-446, looked up)
chain: YSGIQESSSPSPLSIKKCPICKADDICDHTLEQQQMQPLCFNCPICDKIFPATEKQIFEDHVFCHSL
notes: NDP52/CALCOCO2, zinc finger domains ZF1 and ZF2, amino acid residues 380-446; also called ZFs domain; source: E. coli BL21 DE3, purified (HisTrap FF, Superdex 200 SEC)
stoichiometry N [6]: 2 and 3 | Kd [7]: 180 ± 17 nM

percent of molecules in an oligomeric state [9]: 15% | stoichiometry N [9]: 2 | stoichiometry N [10]: 2 and 3 | stoichiometry N [11]: 2 and 3 and 4 | Kd [12]: 210 nM
B6: NDP52-FL (full-length NDP52/CALCOCO2), Q13137 1-446 (natural protein)
chain: T1 sequence

B7: CoCoA (recombinant) (natural protein, UniProt Q9P1Z2 1-691, looked up)
chain: T2 sequence
notes: CoCoA, member of the CALCOCO family, recombinant; source: E. coli BL21 DE3, purified (HisTrap FF, Superdex 200 SEC)
stoichiometry N [6]: 2 | Kd [7]: 85 nM
